In the supplement of paper PMC10567573:

B1: STK38L (parent)
chain: FLPGGDMMTLLMKKDTLTEEETQF

Variants of: B1
Assay: protein stability index of a GFP-peptide fusion (GPS, HEK-293T) (PSI 1-6); higher = more stable
Conditions: c terminus: a fixed tail appended
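Note: lentivirally expressed fusions sorted by FACS into six bins by GFP to DsRed ratio, PSI derived from sequencing read proportions per bin multiplied by bin number.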

Protein stability index of substitutions, site by site:
K13: E 3.03, M 2.28, Q 2.42, I 1.87, F 2.21, A 2.21, R 2.21, L 2.05, D 3.66, C 1.67, W 1.69, N 2.49, Y 2.02, V 1.95, P 2.24, T 2.69, S 2.56, G 2.3, H 2.37
K14: D 2.92, A 2.48, C 2.55
L10: Q 3.91, F 2.75, V 2.98, D 4.67, T 3.78, R 3.32, E 4.71, K 3.11, G 3.79, P 3.9, Y 2, C 3.45, A 3.73, N 4.26, W 1.98, S 4.07, H 3.38, I 2.64, M 3.16
T9: Q 2.69, I 2.19, D 4.35, H 2.45, F 2.16, M 3.26, R 1.69, W 2.2, E 3.2, L 2.32, G 2.71, K 2.12, N 3.01, P 4.22, Y 2, S 2.38, A 2.52, V 1.81, C 2.01
M12: Q 3.25, A 2.81, Y 2.84, C 3.16, W 1.95, V 3.36, T 3.49, G 3.72, S 3.48, P 3.5, I 2.56, H 3.69, L 2.35, R 3.48, F 2.54, K 3.69, E 3.68, N 3.86, D 4.06
G5: R 3, T 3.44, F 2.84, Y 2.63, H 2.75, Q 2.72, S 3.21, I 2.63, L 3.01, M 3.13, N 3.13, V 2.79, K 4.21, P 2.94
L11: R 3.29, H 3.43, Q 3.89, Y 2.41, M 2.56, T 3.07, W 1.56, E 4.25, P 3.89, G 2.89, A 3.29, N 3.4, S 3.41, D 4.19, V 3.18, C 2.63, F 1.84, K 3.91, I 2.53
D6: E 2.02, S 2.07, K 1.98, Y 2.42, I 1.85, Q 1.96, T 1.82, C 2.24, P 1.87, N 2.69, A 1.7, W 1.4, V 2.33, H 1.72, R 2.18, M 2.54, L 2.71, F 1.96
M8: D 4.8, W 1.44, S 4.02, L 2.06, P 3.82, E 4.21, F 1.84, R 3.36, Q 3.35, Y 1.94, N 4.12, T 4.3, K 3.66, A 3.75, C 3.33, V 2.54, H 3.95, G 3.76, I 2.22
M7: R 3.61, F 2.23, D 4.85, V 2.85, P 3.67, I 2.08, T 3.87, N 3.05, C 2.63, H 3.72, S 3.9, L 2.43, K 3.55, G 3.16, Y 2.81, Q 3.65, E 4.77, A 4.11
